Assay results taken from paper PMC3005596 (Journal of molecular biology, 2010).
Changes are numbered by the printed parent chain. Read-outs that look alike come from different tables or passages of the source.

B1: HIV trans-activating response (TAR) RNA binding protein (TRBP) (natural protein, human, UniProt Q15633 1-366, looked up)
chain: MSEEEQGSGTTTGCGLPSIEQMLAANPGKTPISLLQEYGTRIGKTPVYDLLKAEGQAHQPNFTFRVTVGDTSCTGQGPSKKAAKHKAAEVALKHLKGGSMLEPALEDSSSFSPLDSSLPEDIPVFTAAAAATPVPSVVLTRSPPMELQPPVSPQQSECNPVGALQELVVQKGWRLPEYTVTQESGPAHRKEFTMTCRVERFIEIGSGTSKKLAKRNAAAKMLLRVHTVPLDARDGNEVEPDDDHFSIGVGSRLDGLRNRGPGCTWDSLRNSVGEKILSLRSCSLGSLGALGPACCRVLSELSEEQAFHVSYLDIEELSLSGLCQCLVELSTQPATVCHGSATTREAARGEAARRALQYLKIMAGSK
B2: phospho-mimic mutant of TRBP (TRBPpm) (natural protein, human, UniProt Q15633 1-366, looked up)
chain: B1 chain with S142D, S152D, S283D, S286D
B3: 35-bp duplex (pre-siRNA) (dsRNA)
RNA 1: UGAGGUAGUAGGUUGUAUAGUUUGAAAGUUCACGAUU
RNA 2: UCGUGAACUUUCAAACUAUACAACCUACUACCUCAAA
B4: pre-let-7a (structured_RNA)
RNA: UGAGGUAGUAGGUUGUAUAGUUUUAGGGUCACACCCACCACUGGGAGAUAACUAUACAAUCUACUGUCUUACC

Legend:
human Dicer = human Dicer (human, UniProt Q9UPY3 1-1922); test: SEC
Chain of human Dicer (Q9UPY3 whole entry): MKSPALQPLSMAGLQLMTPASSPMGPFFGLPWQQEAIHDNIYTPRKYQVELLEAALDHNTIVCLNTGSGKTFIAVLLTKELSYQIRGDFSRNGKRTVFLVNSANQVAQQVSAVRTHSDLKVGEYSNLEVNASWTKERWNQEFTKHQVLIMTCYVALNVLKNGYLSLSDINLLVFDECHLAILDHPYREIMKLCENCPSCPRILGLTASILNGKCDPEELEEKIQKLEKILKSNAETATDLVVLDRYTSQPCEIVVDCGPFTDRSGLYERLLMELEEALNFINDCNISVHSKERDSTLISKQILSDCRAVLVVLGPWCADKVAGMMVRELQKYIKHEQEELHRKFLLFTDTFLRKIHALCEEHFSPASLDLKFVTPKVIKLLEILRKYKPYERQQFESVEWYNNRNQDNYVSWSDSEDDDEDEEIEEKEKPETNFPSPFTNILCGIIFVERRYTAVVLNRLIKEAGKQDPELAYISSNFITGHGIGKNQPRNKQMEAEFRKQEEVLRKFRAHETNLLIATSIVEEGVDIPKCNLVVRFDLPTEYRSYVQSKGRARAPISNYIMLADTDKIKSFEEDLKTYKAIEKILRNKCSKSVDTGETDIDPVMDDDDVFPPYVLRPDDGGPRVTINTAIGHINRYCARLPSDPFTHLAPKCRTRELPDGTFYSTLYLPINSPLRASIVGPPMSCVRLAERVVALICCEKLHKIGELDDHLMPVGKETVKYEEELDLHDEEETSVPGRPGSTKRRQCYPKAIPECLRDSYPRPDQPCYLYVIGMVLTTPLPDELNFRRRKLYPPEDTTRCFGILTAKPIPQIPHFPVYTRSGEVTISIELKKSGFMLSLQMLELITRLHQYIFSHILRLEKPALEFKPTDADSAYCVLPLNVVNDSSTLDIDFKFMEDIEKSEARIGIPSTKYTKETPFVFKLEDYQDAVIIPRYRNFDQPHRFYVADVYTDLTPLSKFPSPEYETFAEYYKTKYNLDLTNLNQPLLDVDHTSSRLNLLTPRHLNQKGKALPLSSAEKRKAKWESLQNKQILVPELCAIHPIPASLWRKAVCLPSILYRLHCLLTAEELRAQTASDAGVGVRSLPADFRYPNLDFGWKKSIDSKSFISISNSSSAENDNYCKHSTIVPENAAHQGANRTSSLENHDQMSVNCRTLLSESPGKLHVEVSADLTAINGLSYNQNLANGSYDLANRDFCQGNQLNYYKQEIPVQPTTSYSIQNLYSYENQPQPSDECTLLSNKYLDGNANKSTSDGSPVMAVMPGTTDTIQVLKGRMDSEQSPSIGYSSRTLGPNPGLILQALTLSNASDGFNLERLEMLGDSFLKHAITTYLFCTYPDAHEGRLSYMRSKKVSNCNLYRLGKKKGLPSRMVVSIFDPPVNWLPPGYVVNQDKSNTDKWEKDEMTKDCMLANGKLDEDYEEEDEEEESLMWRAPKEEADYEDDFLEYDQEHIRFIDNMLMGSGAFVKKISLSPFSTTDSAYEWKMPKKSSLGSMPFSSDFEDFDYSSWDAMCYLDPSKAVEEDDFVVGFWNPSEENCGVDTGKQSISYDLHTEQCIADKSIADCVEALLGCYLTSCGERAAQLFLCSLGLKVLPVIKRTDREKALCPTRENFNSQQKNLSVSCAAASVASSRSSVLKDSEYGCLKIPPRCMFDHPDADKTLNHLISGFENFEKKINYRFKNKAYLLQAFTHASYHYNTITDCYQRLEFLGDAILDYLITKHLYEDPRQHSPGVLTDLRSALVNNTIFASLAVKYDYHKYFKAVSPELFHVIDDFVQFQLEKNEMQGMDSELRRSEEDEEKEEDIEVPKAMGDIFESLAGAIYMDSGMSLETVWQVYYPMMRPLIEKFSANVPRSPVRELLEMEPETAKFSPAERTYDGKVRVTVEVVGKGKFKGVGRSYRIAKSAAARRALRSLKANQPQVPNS

Dicer;TRBP = Dicer;TRBP (human;human, UniProt Q9UPY3;Q15633 1-1922;1-366, |); test: filter binding
Chain of Dicer;TRBP (Q9UPY3 whole entry, one chain of several): as the sequence (Q9UPY3 whole entry) above

Dicer = Dicer (human, UniProt Q9UPY3 1-1922); test: filter binding
Chain of Dicer (Q9UPY3 whole entry): as above

Dicer;TRBPRBD3 = Dicer;TRBPRBD3 (human;human, UniProt Q9UPY3;Q15633 1-1922;293-366, |); test: filter binding
Chain of Dicer;TRBPRBD3 (Q9UPY3 whole entry, chain 1 of 2, one chain of several): as the sequence (Q9UPY3 whole entry) above

TRBP [1] = biological target: T1, TRBP (human, UniProt Q15633 1-366); test: filter binding
T1 sequence: B1 chain

TRBPpm (phospho-mimic) [2] = biological target: T2, TRBPpm (phospho-mimic) (human, UniProt Q15633 1-366, S142D;S152D;S283D;S286D); test: filter binding
T2 sequence: B1 chain with S142D, S152D, S283D, S286D

TRBP [3] = biological target: T1, TRBP; test: filter binding; remark: listed apart in the source
TRBPpm (phospho-mimic) [4] = biological target: T2, TRBPpm (phospho-mimic); test: filter binding; remark: listed apart in the source
[5] = biological target: Dicer;TRBPpm (phospho-mimic) (human;human, UniProt Q9UPY3;Q15633 1-1922;1-366, |S142D;S152D;S283D;S286D); test: filter binding
Chain of Dicer;TRBPpm (phospho-mimic) (Q9UPY3 whole entry, chain 1 of 2): as the sequence (Q9UPY3 whole entry) above
Chain of Dicer;TRBPpm (phospho-mimic) (Q15633 whole entry S142D/S152D/S283D/S286D, chain 2 of 2): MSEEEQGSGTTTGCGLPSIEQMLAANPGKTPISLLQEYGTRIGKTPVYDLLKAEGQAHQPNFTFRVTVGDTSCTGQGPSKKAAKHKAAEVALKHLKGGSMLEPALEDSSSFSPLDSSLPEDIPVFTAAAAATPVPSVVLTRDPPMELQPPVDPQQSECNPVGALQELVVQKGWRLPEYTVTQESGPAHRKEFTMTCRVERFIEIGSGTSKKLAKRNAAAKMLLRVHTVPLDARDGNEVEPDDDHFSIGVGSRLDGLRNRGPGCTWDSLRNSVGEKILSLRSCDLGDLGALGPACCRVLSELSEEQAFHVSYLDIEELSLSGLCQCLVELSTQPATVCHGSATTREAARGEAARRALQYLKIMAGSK

Binder	binding result (human Dicer)	Kd (Dicer;TRBP)	Kd (Dicer)	Kd (Dicer;TRBPRBD3)	Kd (TRBP [1])	Kd (TRBPpm (phospho-mimic) [2])	Kd (TRBP [3])	Kd (TRBPpm (phospho-mimic) [4])	Kd [5]
B1	binds	–	–	–	–	–	–	–	–
B2	binds	–	–	–	–	–	–	–	–
B3	–	< 0.051 nM	3.4 ± 0.5 nM	3 ± 0.4 nM	< 0.09 nM	< 0.1 nM	–	–	–
B4	–	< 0.05 nM	1.8 ± 0.4 nM	1.3 ± 0.1 nM	–	–	1.3 ± 0.2 nM	2.9 ± 0.6 nM	< 0.04 nM
